Experiment [1] addresses TorT (vpTorT) (Vibrio parahaemolyticus, UniProt Q87ID2). Put plainly: ITC. Format: binding.
For experiment [2], the target named is TorS (Escherichia coli) (UniProt P39453). To be noted: cited from earlier work.
Experiment [3] concerns the target vpTorSS-TorSS dimer: two copies of vpTorSS (51-323) fused via a flexible linker [LN(SG)10A3] (V. parahaemolyticus). Put plainly: AUC.
Experiment [4] has as its target isolated vpTorSS sensor domain, GSGS-TorS(51-323) (V. parahaemolyticus). The experiment can be described thus: AUC.
Experiment [5] shares this target. Put plainly: native gel or EMSA + SEC. For orientation: A gel shift assay detects complexes by their altered migration in electrophoresis.

Sequence of TorT (P38683 19-342): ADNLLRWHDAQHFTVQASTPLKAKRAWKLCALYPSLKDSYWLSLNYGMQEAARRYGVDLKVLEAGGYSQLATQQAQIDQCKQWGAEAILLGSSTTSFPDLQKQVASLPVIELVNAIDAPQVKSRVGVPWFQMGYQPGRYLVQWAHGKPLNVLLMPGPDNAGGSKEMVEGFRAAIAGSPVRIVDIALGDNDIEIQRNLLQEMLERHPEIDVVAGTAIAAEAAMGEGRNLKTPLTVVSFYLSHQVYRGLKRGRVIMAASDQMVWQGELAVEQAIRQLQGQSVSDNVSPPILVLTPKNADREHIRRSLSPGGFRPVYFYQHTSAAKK

In experiment [1], `C[N+](C)(C)[O-]` [TMAO, trimethylamine-N-oxide] displayed a Kd of 1360 nM.

On to TorT (from UniProt P38683), for which, in experiment [2], the Kd is 10 nM. In experiment [3], “periplasmic binding protein TorT from V. parahaemolyticus, GSGS-TorT(29-329) (natural protein)” displayed a Kd of 1790 nM. For the same molecule, the stoichiometry N (TorT per TorSS (2:2)) in experiment [4] and in experiment [5] was 1 each time.

For orientation: Kd means the constant that tells how readily two partners part at equilibrium.

These data come from article PMC3625974 (Structure (London, England : 1993), 2012).
